In PMC3470408:

System: CC(C)=CCOP(=O)(O)OP(=O)(O)O
Experiment: purified protein
Settings: pH 7.0; 37.0 °C

Work on “Rv0562 (Mycobacterium tuberculosis H37Rv)” yielded a Km of 5 ± 2 µM.
